From patent US20210146029A1 come the findings set out here.

In the experiment the target is sTNF-R1 (soluble Tumor Necrosis Factor Receptor 1), spiked into buffer or human plasma (UniProt P19438). Kind of experiment: column run with spiked human plasma (9.74 ng/mL sTNF-R1), pre- against post-column concentration at each time point.
Sequence of UniProt P19438 (P19438 30-211 limits assumed): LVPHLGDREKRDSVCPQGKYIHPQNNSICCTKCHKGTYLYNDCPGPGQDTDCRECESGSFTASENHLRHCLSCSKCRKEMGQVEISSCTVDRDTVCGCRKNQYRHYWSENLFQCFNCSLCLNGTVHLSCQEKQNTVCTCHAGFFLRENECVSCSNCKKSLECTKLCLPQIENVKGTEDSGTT

Substance “recombinant single chain TNFα ligand (sc-TNFα ligand, comprising 3 TNFα monomers), covalently linked to agarose beads” gave a binding efficiency greater than 95%.
